pKd: −log10 of the molar value.
Columns and labels:
Test in all cases: BLI; Octet Red; GST-WASP variants loaded on anti-GST sensors (10 μg/ml), dipped into a dilution range of Cdc42·GMPPNP; 50 mM Tris-HCl pH 7.5, 150 mM NaCl, 1 mM MgCl2, 0.02% Tween 20, 0.1% BSA, 0.05% sodium azide, 25 °C; GST-alone sensors subtracted
[1] = target: GST-WASP(201–321) K226A/R227A (UniProt P42768)
[2] = target: GST-WASP(201–321) K230A/K231A (UniProt P42768)
GST-WASP(201–321) K231A = GST-WASP(201–321) K231A (UniProt P42768)
GST-WASP(201–321) K230A = GST-WASP(201–321) K230A (UniProt P42768)
[3] = target: GST-WASP(201–321) K225A/K226A/R227A (UniProt P42768)
[4] = target: GST-WASP(201–321) K231A/K232A (UniProt P42768)
GST-WASP(201–321) R227A = GST-WASP(201–321) R227A (UniProt P42768)
GST-WASP(201–321) K232A = GST-WASP(201–321) K232A (UniProt P42768)
GST-WASP(201–321) K226A = GST-WASP(201–321) K226A (UniProt P42768)
[5] = target: GST-WASP(201–321) K230A/K231A/K232A (UniProt P42768)
[6] = target: GST-WASP(201–321) K230A/K232A (UniProt P42768)

pKd [1]: 7.13
koff [1]: 0.0372 s⁻¹
kon [1]: 497000 M⁻¹ s⁻¹
pKd [2]: 6.79
koff [2]: 0.0684 s⁻¹
kon [2]: 422000 M⁻¹ s⁻¹
pKd (GST-WASP(201–321) K231A): 7.05
koff (GST-WASP(201–321) K231A): 0.0438 s⁻¹
kon (GST-WASP(201–321) K231A): 509000 M⁻¹ s⁻¹
pKd (GST-WASP(201–321) K230A): 6.98
koff (GST-WASP(201–321) K230A): 0.0498 s⁻¹
kon (GST-WASP(201–321) K230A): 477000 M⁻¹ s⁻¹
pKd [3]: 7.10
koff [3]: 0.042 s⁻¹
kon [3]: 540000 M⁻¹ s⁻¹
pKd [4]: 6.75
koff [4]: 0.0639 s⁻¹
kon [4]: 368000 M⁻¹ s⁻¹
pKd (GST-WASP(201–321) R227A): 7.31
koff (GST-WASP(201–321) R227A): 0.0281 s⁻¹
kon (GST-WASP(201–321) R227A): 630000 M⁻¹ s⁻¹
pKd (GST-WASP(201–321) K232A): 6.87
koff (GST-WASP(201–321) K232A): 0.0546 s⁻¹
kon (GST-WASP(201–321) K232A): 407000 M⁻¹ s⁻¹
pKd (GST-WASP(201–321) K226A): 7.26
koff (GST-WASP(201–321) K226A): 0.0338 s⁻¹
kon (GST-WASP(201–321) K226A): 676000 M⁻¹ s⁻¹
pKd [5]: 6.51
koff [5]: 0.0914 s⁻¹
kon [5]: 300000 M⁻¹ s⁻¹
pKd [6]: 6.85
koff [6]: 0.067 s⁻¹
kon [6]: 484000 M⁻¹ s⁻¹
Substance: Cdc42 Δ7 Q61L (from UniProt P60953 1-191) (natural protein)

— publication PMC6166713
